# Assay results from patent US20250197482A1 (UNITED STATES OF AMERICA AS REPRESENTED BY THE SECRETARY …, published 2025).
# B1: CAP256V2LS-10E8-2 (bispecific antibody)
# heavy chain: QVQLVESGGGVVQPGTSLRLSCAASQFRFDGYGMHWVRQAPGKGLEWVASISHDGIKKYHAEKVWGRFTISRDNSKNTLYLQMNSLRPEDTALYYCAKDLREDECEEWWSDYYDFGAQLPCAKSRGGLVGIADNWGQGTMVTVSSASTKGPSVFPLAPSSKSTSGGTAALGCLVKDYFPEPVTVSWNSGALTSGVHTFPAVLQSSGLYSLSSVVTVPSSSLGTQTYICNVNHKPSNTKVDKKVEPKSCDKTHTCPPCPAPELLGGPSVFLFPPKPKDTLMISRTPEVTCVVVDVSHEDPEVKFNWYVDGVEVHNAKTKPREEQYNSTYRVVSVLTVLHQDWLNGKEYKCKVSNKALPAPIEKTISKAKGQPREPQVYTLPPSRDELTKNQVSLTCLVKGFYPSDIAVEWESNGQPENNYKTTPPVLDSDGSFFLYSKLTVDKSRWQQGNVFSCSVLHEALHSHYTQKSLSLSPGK
# light chain (10E8v4 scFv, linker, CAP256V2LS LC): EVRLVESGGGLVKPGGSLRLSCSASGFDFDNAWMTWVRQPPGKGLEWVGRITGPGEGWSVDYAESVKGRFTISRDNTKNTLYLEMNNVRTEDTGYYFCARTGKYYDFWSGYPPGEEYFQDWGQGTLVIVSSGGGGSGGGGSGGGGSSELTQDPAVSVALKQTVTITCRGDSLRSHYASWYQKKPGQAPVLLFYGKNNRPSGIPDRFSGSASGNRASLTITGAQAEDEADYYCSSRDKSGSRLSVFGGGTKLTVGGSGGGGSGGQSVLTQPPSVSAAPGQKVTISCSGNTSNIGNNFVSWYQQRPGRAPQLLIYETDKRPSGIPDRFSASKSGTSGTLAITGLQTGDEADYYCATWAASLSSARVFGTGTQVIVLGQPKVNPTVTLFPPSSEELQANKATLVCLISDFYPGAVTVAWKADSSPVKAGVETTTPSKQSNNKYAASSYLSLTPEQWKSHRSYSCQVTHEGSTVEKTVAPTECS
# B2: CAP256V2LS (antibody, V domains shown)
# VH: QVQLVESGGGVVQPGTSLRLSCAASQFRFDGYGMHWVRQAPGKGLEWVASISHDGIKKYHAEKVWGRFTISRDNSKNTLYLQMNSLRPEDTALYYCAKDLREDECEEWWSDYYDFGAQLPCAKSRGGLVGIADNWGQGTMVTVSS
# VL: QSVLTQPPSVSAAPGQKVTISCSGNTSNIGNNFVSWYQQRPGRAPQLLIYETDKRPSGIPDRFSASKSGTSGTLAITGLQTGDEADYYCATWAASLSSARVFGTGTQVIVLG
# B3: CAP256V2LS-J3-6 (bispecific antibody)
# heavy chain: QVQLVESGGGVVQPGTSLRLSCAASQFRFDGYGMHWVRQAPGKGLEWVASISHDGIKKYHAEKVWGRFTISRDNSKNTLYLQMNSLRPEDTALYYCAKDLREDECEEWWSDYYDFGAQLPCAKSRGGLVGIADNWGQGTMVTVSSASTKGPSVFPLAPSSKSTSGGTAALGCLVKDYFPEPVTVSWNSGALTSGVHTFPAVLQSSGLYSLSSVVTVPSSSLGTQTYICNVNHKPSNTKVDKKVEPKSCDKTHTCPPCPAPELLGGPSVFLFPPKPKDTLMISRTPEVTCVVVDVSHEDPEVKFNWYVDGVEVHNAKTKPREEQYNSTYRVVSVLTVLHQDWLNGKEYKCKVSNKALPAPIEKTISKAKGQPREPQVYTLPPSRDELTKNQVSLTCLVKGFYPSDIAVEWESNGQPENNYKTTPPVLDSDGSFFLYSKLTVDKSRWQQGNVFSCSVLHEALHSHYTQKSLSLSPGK
# light chain (J3 VHH, linker, CAP256V2LS LC): EVQLVESGGGLVQAGGFLRLSCELRGSIFNQYAMAWFRQAPGKEREFVAGMGAVPHYGEFVKGRFTISRDNAKSTVYLQMSSLKPEDTAIYFCARSKSTYISYNSNGYDYWGRGTQVTVSSDKTHTGDKTHTGDKTHTQSVLTQPPSVSAAPGQKVTISCSGNTSNIGNNFVSWYQQRPGRAPQLLIYETDKRPSGIPDRFSASKSGTSGTLAITGLQTGDEADYYCATWAASLSSARVFGTGTQVIVLGQPKVNPTVTLFPPSSEELQANKATLVCLISDFYPGAVTVAWKADSSPVKAGVETTTPSKQSNNKYAASSYLSLTPEQWKSHRSYSCQVTHEGSTVEKTVAPTECS
# B4: CAP256V2LS-VRC01-6 (bispecific antibody)
# heavy chain: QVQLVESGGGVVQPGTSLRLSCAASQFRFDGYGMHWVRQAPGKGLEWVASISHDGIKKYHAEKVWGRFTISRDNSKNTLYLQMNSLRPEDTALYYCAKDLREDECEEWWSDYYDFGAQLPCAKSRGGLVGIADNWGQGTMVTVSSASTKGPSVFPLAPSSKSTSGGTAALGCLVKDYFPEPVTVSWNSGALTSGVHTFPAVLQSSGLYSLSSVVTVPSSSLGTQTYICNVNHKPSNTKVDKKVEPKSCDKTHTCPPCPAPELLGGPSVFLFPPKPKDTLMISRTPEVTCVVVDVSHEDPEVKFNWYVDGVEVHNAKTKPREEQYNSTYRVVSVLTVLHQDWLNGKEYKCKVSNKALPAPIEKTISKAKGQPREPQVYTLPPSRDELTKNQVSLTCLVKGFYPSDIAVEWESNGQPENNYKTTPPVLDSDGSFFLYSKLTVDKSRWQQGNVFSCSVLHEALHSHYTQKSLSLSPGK
# light chain (VRC01 scFv, linker, CAP256V2LS LC): QVQLVQSGGQMKKPGESMRISCRASGYEFIDCTLNWIRLAPGKRPEWMGWLKPRGGAVNYARPLQGRVTMTRDVYSDTAFLELRSLTVDDTAVYFCTRGKNCDYNWDFEHWGRGTPVIVSSGGGGSGGGGSGGGGSLTQSPGTLSLSPGETAIISCRTSQYGSLAWYQQRPGQAPRLVIYSGSTRAAGIPDRFSGSRWGPDYNLTISNLESGDFGVYYCQQYEFFGQGTKVQVDKTHTDKTHTDKTHTQSVLTQPPSVSAAPGQKVTISCSGNTSNIGNNFVSWYQQRPGRAPQLLIYETDKRPSGIPDRFSASKSGTSGTLAITGLQTGDEADYYCATWAASLSSARVFGTGTQVIVLGQPKVNPTVTLFPPSSEELQANKATLVCLISDFYPGAVTVAWKADSSPVKAGVETTTPSKQSNNKYAASSYLSLTPEQWKSHRSYSCQVTHEGSTVEKTVAPTECS
# B5: CAP256V2LS-J3-5 (bispecific antibody)
# heavy chain: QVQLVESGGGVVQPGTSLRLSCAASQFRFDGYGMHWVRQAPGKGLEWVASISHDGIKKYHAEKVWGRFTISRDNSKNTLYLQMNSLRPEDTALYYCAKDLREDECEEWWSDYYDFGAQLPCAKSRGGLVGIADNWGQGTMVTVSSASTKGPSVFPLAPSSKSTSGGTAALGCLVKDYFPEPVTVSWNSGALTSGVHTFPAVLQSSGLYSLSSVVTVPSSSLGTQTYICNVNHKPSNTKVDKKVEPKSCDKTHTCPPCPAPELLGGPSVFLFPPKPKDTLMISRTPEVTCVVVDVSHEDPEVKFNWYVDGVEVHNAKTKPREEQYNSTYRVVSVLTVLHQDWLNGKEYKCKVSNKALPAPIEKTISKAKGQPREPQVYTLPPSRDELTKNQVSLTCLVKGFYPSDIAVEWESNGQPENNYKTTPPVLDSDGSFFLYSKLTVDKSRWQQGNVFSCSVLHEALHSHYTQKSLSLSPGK
# light chain (J3 VHH, linker, CAP256V2LS LC): EVQLVESGGGLVQAGGFLRLSCELRGSIFNQYAMAWFRQAPGKEREFVAGMGAVPHYGEFVKGRFTISRDNAKSTVYLQMSSLKPEDTAIYFCARSKSTYISYNSNGYDYWGRGTQVTVSSDKTHTGDKTHTQSVLTQPPSVSAAPGQKVTISCSGNTSNIGNNFVSWYQQRPGRAPQLLIYETDKRPSGIPDRFSASKSGTSGTLAITGLQTGDEADYYCATWAASLSSARVFGTGTQVIVLGQPKVNPTVTLFPPSSEELQANKATLVCLISDFYPGAVTVAWKADSSPVKAGVETTTPSKQSNNKYAASSYLSLTPEQWKSHRSYSCQVTHEGSTVEKTVAPTECS
# B6: CAP256V2LS-VRC01-5 (bispecific antibody)
# heavy chain: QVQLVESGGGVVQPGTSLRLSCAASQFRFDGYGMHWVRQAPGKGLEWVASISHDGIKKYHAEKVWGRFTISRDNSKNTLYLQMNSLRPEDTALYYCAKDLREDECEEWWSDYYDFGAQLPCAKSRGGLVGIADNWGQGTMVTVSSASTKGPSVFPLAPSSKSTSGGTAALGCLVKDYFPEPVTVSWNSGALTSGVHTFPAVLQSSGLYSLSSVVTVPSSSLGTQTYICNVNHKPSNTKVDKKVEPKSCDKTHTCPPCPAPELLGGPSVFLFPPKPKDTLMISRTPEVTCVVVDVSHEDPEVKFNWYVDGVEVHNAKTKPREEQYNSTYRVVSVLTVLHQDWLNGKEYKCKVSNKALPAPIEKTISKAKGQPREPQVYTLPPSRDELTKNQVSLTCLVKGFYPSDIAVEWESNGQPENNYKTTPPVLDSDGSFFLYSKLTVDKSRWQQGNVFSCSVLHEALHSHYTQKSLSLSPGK
# light chain (VRC01 scFv, linker, CAP256V2LS LC): QVQLVQSGGQMKKPGESMRISCRASGYEFIDCTLNWIRLAPGKRPEWMGWLKPRGGAVNYARPLQGRVTMTRDVYSDTAFLELRSLTVDDTAVYFCTRGKNCDYNWDFEHWGRGTPVIVSSGGGGSGGGGSGGGGSLTQSPGTLSLSPGETAIISCRTSQYGSLAWYQQRPGQAPRLVIYSGSTRAAGIPDRFSGSRWGPDYNLTISNLESGDFGVYYCQQYEFFGQGTKVQVDKTHTDKTHTQSVLTQPPSVSAAPGQKVTISCSGNTSNIGNNFVSWYQQRPGRAPQLLIYETDKRPSGIPDRFSASKSGTSGTLAITGLQTGDEADYYCATWAASLSSARVFGTGTQVIVLGQPKVNPTVTLFPPSSEELQANKATLVCLISDFYPGAVTVAWKADSSPVKAGVETTTPSKQSNNKYAASSYLSLTPEQWKSHRSYSCQVTHEGSTVEKTVAPTECS
# B7: CAP256V2LS-J3-4 (bispecific antibody)
# heavy chain: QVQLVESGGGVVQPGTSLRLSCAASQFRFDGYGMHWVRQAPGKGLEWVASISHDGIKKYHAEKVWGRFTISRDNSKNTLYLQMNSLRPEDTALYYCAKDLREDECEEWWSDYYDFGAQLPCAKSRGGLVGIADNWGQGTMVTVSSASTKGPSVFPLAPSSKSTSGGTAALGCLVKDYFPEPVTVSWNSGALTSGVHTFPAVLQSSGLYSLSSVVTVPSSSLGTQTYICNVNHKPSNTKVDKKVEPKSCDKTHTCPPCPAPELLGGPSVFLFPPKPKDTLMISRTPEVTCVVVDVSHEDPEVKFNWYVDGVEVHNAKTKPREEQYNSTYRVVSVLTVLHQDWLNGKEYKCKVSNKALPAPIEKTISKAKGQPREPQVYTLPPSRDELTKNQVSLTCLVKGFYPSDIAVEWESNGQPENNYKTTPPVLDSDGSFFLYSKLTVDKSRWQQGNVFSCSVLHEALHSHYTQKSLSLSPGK
# light chain (J3 VHH, linker, CAP256V2LS LC): EVQLVESGGGLVQAGGFLRLSCELRGSIFNQYAMAWFRQAPGKEREFVAGMGAVPHYGEFVKGRFTISRDNAKSTVYLQMSSLKPEDTAIYFCARSKSTYISYNSNGYDYWGRGTQVTVSSDKTHTQSVLTQPPSVSAAPGQKVTISCSGNTSNIGNNFVSWYQQRPGRAPQLLIYETDKRPSGIPDRFSASKSGTSGTLAITGLQTGDEADYYCATWAASLSSARVFGTGTQVIVLGQPKVNPTVTLFPPSSEELQANKATLVCLISDFYPGAVTVAWKADSSPVKAGVETTTPSKQSNNKYAASSYLSLTPEQWKSHRSYSCQVTHEGSTVEKTVAPTECS
# B8: CAP256V2LS-10E8-1 (bispecific antibody)
# heavy chain: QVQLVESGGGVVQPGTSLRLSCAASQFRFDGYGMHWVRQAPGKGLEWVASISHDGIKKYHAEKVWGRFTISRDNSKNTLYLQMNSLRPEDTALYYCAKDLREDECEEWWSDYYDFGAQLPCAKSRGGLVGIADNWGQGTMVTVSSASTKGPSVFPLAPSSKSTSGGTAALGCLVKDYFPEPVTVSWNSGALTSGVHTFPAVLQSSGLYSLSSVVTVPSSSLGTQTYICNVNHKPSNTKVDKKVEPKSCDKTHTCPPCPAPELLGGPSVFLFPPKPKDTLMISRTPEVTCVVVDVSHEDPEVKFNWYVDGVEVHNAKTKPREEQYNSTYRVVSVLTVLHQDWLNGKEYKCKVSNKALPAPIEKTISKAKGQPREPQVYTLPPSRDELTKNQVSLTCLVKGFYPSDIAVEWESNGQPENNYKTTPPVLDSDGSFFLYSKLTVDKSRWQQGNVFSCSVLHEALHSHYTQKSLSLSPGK
# light chain (10E8v4 scFv, linker, CAP256V2LS LC): EVRLVESGGGLVKPGGSLRLSCSASGFDFDNAWMTWVRQPPGKGLEWVGRITGPGEGWSVDYAESVKGRFTISRDNTKNTLYLEMNNVRTEDTGYYFCARTGKYYDFWSGYPPGEEYFQDWGQGTLVIVSSGGGGSGGGGSGGGGSSELTQDPAVSVALKQTVTITCRGDSLRSHYASWYQKKPGQAPVLLFYGKNNRPSGIPDRFSGSASGNRASLTITGAQAEDEADYYCSSRDKSGSRLSVFGGGTKLTVGGSGGQSVLTQPPSVSAAPGQKVTISCSGNTSNIGNNFVSWYQQRPGRAPQLLIYETDKRPSGIPDRFSASKSGTSGTLAITGLQTGDEADYYCATWAASLSSARVFGTGTQVIVLGQPKVNPTVTLFPPSSEELQANKATLVCLISDFYPGAVTVAWKADSSPVKAGVETTTPSKQSNNKYAASSYLSLTPEQWKSHRSYSCQVTHEGSTVEKTVAPTECS
# Legend:
# [1] = target: HIV-1 Env of strain WITO.33 (Env-pseudotyped virus) (HIV-1); assay: cell-based or functional assay
# [2] = target: CAP256 wk34c80 (HIV-1); assay: cell-based or functional assay
Binder,"% neutralization, single point, Env-pseudotyped virus on TZM-bl [1] [%]","% neutralization, single point, Env-pseudotyped virus on TZM-bl [2] [%]"
B1,45,91
B2,0,100
B3,48,100
B4,0,98
B5,62,100
B6,0,67
B7,86,100
B8,14,98
